Measured values published in patent publication EP2261242A1, “Aspartate-N-acetyltransferase enzyme, diagnostic method and therapeutic method” (UNIVERSITE CATHOLIQUE DE LOUVAIN, priority 2009, dated 2010).
Where two headings read alike, the source gives them in different places.

Experiments:
mouse NAT8L = molecular target: T1, mouse NAT8L (Mus musculus, UniProt Q3UGX3); test: Radiochemical Asp-NAT activity assay on washed membrane pellets of HEK cells transfected with untagged mouse NAT8L; type: biochemical
T1 construct: expressed in transfected cells; host or cells: HEK 293T cells (pCMV5 vector); washed 16 000 x g membrane pellets of frozen-thawed extracts
T1 sequence (Q3UGX3 1-299): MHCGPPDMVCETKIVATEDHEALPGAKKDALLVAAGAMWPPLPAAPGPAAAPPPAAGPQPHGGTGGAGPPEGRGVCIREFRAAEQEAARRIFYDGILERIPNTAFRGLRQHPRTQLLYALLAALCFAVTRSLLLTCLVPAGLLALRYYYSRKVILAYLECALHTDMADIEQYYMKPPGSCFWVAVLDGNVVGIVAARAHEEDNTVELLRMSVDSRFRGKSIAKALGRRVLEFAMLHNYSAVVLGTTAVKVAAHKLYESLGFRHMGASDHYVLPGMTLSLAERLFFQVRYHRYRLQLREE
Procedure: After 20-40 min at 30°C, the reaction was arrested by a 5-min incubation at 80°C and 1 ml of 5 mM Hepes, pH 7.1 was added. The sample was centrifuged and the supernatant was applied on a 1-ml Dowex AG1X8 column (Cl^- form, 100-200 mesh, from Acros Organics) prepared in a Pasteur capillary pipette. […] Radioactivity was counted in the presence of Ultima Gold™ (Perkin Elmer) in a liquid scintillation counter. The kinetic studies shown in Figure 3 were performed using washed pellets, obtained by centrifuging extracts for 20 min at 16 000 x g, resuspending them in the initial volume of extraction buffer, recentrifugation and resuspension in the original volume of extraction buffer.
The Asp-NAT activity was further characterized in extracts of cells expressing wild-type mouse NAT8L. […] The kinetic studies were therefore performed on washed pellets, to eliminate soluble, potentially interfering enzymes. […] The KM values amounted to ≈ 9 and 13 µM in the presence of 0.5 and 1 mM CHAPS, respectively.

[1] = substrate: CC(=O)SCCNC(=O)CCNC(=O)[C@H](O)C(C)(C)COP(=O)(O)OP(=O)(O)OC[C@H]1O[C@@H](n2cnc3c(N)ncnc32)[C@H](O)[C@@H]1OP(=O)(O)O; test: purified protein, by the assay type; details: other: 20 µM aspartate, pH 7.1
[2] = substrate: NC(CCC(=O)O)C(=O)O; test: purified protein, by the assay type; details: other: glutamate as substrate (not shown); pH 7.1
[3] = substrate: N[C@@H](CC(=O)O)C(=O)O; test: purified protein, by the assay type; details: other: substrate saturation curve; same in absence and presence of 0.5 mM CHAPS; pH 7.1

## CC(=O)N[C@@H](CC(=O)O)C(=O)O [NAA, N-acetylaspartate]
Mouse NAT8L; inhibition of incorporation of [^14C]-aspartate into NAA, competitive with respect to aspartate, 200 µM acetyl-CoA, 0.5 mM CHAPS, variable aspartate
  Ki: 0.56 mM

## N[C@@H](CCC(=O)O)C(=O)O [glutamate]
Mouse NAT8L
  Ki: ~6 mM

## C[C@H](CCC(=O)NCCC[N+](C)(C)CCCS(=O)(=O)[O-])[C@H]1CC[C@H]2[C@@H]3[C@H](O)C[C@@H]4C[C@H](O)CC[C@]4(C)[C@H]3C[C@H](O)[C@]12C [CHAPS]
Mouse NAT8L; 0.5 mM CHAPS, saturation curve for aspartate
  increase of Vmax: ≈ 30%

B1: mouse NAT8L (Mus musculus) (protein)
chain: T1 sequence (Q3UGX3 1-299)
[1]; in the presence of 0.5 mM CHAPS
  Km: 9 µM
[1]; in the presence of 1 mM CHAPS
  Km: 13 µM
[2]
  Km: 5 mM
[3]
  Km: 90 µM
